Measured values published in the nanobody polyreactivity screen of Harvey et al. (2022).

Test: yeast display, Sf9 membrane polyspecificity reagent, FACS + sequencing; frameworks hold sequencing errors
Method in brief: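 Galactose-induced (36–48 hours) yeast carrying a synthetic nanobody display library were exposed to 10% biotinylated, detergent-solubilized Sf9 membrane reagent at 4 °C for 1 hour. FACS followed streptavidin microbead enrichment, using low and high (top ~1%) gates for expression (anti-HA) and reagent binding (streptavidin). Colony PCR, MiSeq 2 × 250 sequencing and CDR-length filtering followed. Labels for polyreactivity reflect the gate of origin.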

Sequence	polyreactivity (PSR sort gate)
QVQLVESGGGLVQAGGSLRLSCAASGRNFYYNAMGWYRQAPGKERELVASITGSGGSTYYADSVKGRFTISRDNAKNTVYLQMNSLKPEDTAVYYCAKREYLYPYYYVAKYDYWGQGTQVTVSS	low polyreactivity
QVQLVESGGGLVQAGGSLRLSCAASGRNFYYYAMGWYRQAPGKERELVAGISWSAGSTYYADSVKGRFTISRDNAKNTVYLQMNSLKPEDTAVYYCAARYWQSYRSQVTHSSTLDYWGQGTQVTVSS	low polyreactivity
QVQLVESGGGLVQAGGSLRLSCAASGRNLHYYSMGWYRQAPGKEWELVAAITWSGGSTYYADSVNGRFTISRDNAKNTVYLQMNSLKPVDTSVYYCAARGTDWGQGTQVTVSS	low polyreactivity
QVQLVESGGGLVQAGGSLRLSCAASGRNSSWNAMGWYRPAPGKERELVAAISVRGGSTYADSVKGRFTISRDNAKNTVSLQMNSLTPADTAVYYCAKTYYPYRLGEGQYEYDYWGQGTQVTVSS	low polyreactivity
QVQLVESGGGLVQAGGSLRLSCAASGRPFWQYAMGWKRQGPGKERELVAAITSSGGSTYDADSVKGRITISRDNAKNTVYLQMNCLKPEDTAVYYCADDTRYYRYYYWGQGTQVTVSS	high polyreactivity
QVQLVESGGGLVQAGGSLRLSCAASGRRFRWYVMGWYRQAPGKERELVARISSNVGSTYYADSVKGRFTISRDNAKNTVYLQMNSLKPEDTAVYYCAAGPPKYYYSNRYYWGQGTQVTVSS	high polyreactivity
QVQLVESGGGLVQAGGSLRLSCAASGRSFAPYAMGWSRQAPGKERELVAAISLSTTRTYYADSVKGRFTISRDNAKNTVYLQMNSLKPEDTAVYYCAAETFTGYFFLRHDYWGQGTQVTVSS	high polyreactivity
QVQLVESGGGLVQAGGSLRLSCAASGRSFKYNAMGWYRQAPGKERELVAAISISGGSTYYADSVKGRFTISRDNAKNTVYLQMNSLKPEDTAVYYCNDDTYYLSDYVTFDYWGQGTQVTVSS	low polyreactivity
QVQLVESGGGLVQAGGSLRLSCAASGRSFLYYAMGWYRQAPGKERELVAAIRRGSSTYYADSVKGRFTISRDNAKNTVYLQMNSLKPEDTAVYYCAARGRYRIGPGRYGKRYAYWGQGTQVTVSS	high polyreactivity
QVQLVESGGGLVQAGGSLRLSCAASGRSFNPYAMGWYRQAPGKERELVAAITNSGGSTYYADSVKVRFTISRDTAMNTFYLQMNSLKPEDTAVYYCNARRYPRYYYWGQGTQVTGSS	high polyreactivity
QVQLVESGGGLVQAGGSLRLSCAASGRSFNYNTMGWYRQAPGKERELVAAINKGGTRTYYADSVKGRFTISRDNAKNTVYLQMNSLKPEDTAVYYCAARLYSYDYWGQGTQVTVSS	high polyreactivity
QVQLVESGGGLVQAGGSLRLSCAASGRSFRPYARGWYRQAPGKERELVAAISSSGGSTYYADSVKGRFTISRDNAKNTVYLQMNSLKPEDTAVYYCATYFARGYNSWGQGTQVTVSS	high polyreactivity
QVQLVESGGGLVQAGGSLRLSCAASGRSFRYNAMGWYRQAPGKARELVAAISSGGSTNYADSVKGRFTTTRDNAKNTVYLQMNSLKPEDTAVYYCNAVYVHRYPGWGYDYWGQGTQVTVSS	low polyreactivity
QVQLVESGGGLVQAGGSLRLSCAASGRSFVLNAMGWYRQAPGKDRELVAAISSGGSTNYADSVKWRFTISRDNAKNTDYLQMNSLKPEDTAVYYCAGQDVNEYSAYYYWGQGTQVTGSS	low polyreactivity
QVQLVESGGGLVQAGGSLRLSCAASGRSFVSYAMGWYRQAPGKERELVASITSSDGTNYADSVKGRFTISRDNEKNTVYLQMNSLKPEDTAVFYCNKDGFTTDRIGPTSDYWGQGTQVTVSS	low polyreactivity
QVQLVESGGGLVQAGGSLRLSCAASGRSIWYYTMGWYRQAPGKERQFFAAITTSGGSTTYADSVKGRYTISRDTAKNTVFLQRNSLKPEDSAVYYCAARVYHGKSKYDYWGQGSQVTVSS	high polyreactivity
QVQLVESGGGLVQAGGSLRLSCAASGRTCAAYAMGWYRQAPGKERELVAAISIGGSTNYADSVKGRFTISRDNAKNTVYLQLNSLKPEDTAVYYCAAGTWAVSKYLEWLEFYYWGQGTQVTVSS	high polyreactivity
QVQLVESGGGLVQAGGSLRLSCAASGRTCIDKAMGWYRQAPGKERELVAAITKGARTYYADSVKGRFTISRDNAKNTVYLQMISLKPEDTGVYYCASVSYTQSHAYWGTGYRYGYWGQGTQVTVSS	high polyreactivity
QVQLVESGGGLVQAGGSLRLSCAASGRTCVGNAMGWYRQAPGKERELVAAIRRGGDSTYYADSVKGRFTISRDNAKNTVYLQMNSLKPEDTAVSYCNAVSLQPYRGGFDYWGQGTQVTVSS	low polyreactivity
QVQLVESGGGLVQAGGSLRLSCAASGRTCWDYAMGWYRPAPGKERELVAAITWGGGSTYYADSVKGRFTISRDNAKNTVYLQMNSLKPEDTAVYYCAADTKGWGQGTQVTVSS	low polyreactivity
QVQLVESGGGLVQAGGSLRLSCAASGRTCYDNTMGWSRQAPGTEREFVADITGSGGSTHYADSVKGRFTISRDNAKNTVYLQLNSLKPEDTAVYYCAADYRYNRGITSNKDYDYWGQGTQVTVSS	low polyreactivity

Sequence	polyreactivity (PSR sort gate)
QVQLVESGGGLVQAGGSLRLSCAASGRTCYNTMGWYRQSPGKERELVAAISRGGITNYADSVKGRFTISRDNAKNTVYLQMNSLKPADTAVYYCIAEPKRYYYYYKFDYWGQGTQVTVSS	high polyreactivity
QVQLVESGGGLVQAGGSLRLSCAASGRTFADYGMGWYRQAPGKERELVAAITSSGGSTYYADSVKGRFTISRDNAKNTVYLQMNSLKPEDTAVYYCAAQQSPSVDYWGQGTQVTVTS	low polyreactivity
QVQLVESGGGLVQAGGSLRLSCAASGRTFAFYTMGWYRQAPGKERELVAAITRTGSTSYADSVKGRFTISRDNAKNTVYLQMNSLKPEDTAVYYCATVGYPYTLWHQMDYWGQGTQVTVSS	low polyreactivity
QVQLVESGGGLVQAGGSLRLSCAASGRTFAGNAMGWYRQAPGKEREFVASITASGVNTYYADSVKGRFTISRDNAKNTVYLQMNSLKPEDTAVYYCNKRNRWTPFYTYEYWGQGTQVTVSS	low polyreactivity
QVQLVESGGGLVQAGGSLRLSCAASGRTFAGYAMGWYRHAPGKETELVAAITTSGGRTYYADSVKGRFTISRDYAKNTVYLQMNSLKPEDTAVYYCNVASKGRYARYAAEYGYWGQGTQVTVSS	high polyreactivity
QVQLVESGGGLVQAGGSLRLSCAASGRTFAINAMGGYRQAPGKERELVATIDRSGGSTYYADSVKGRFTISRDNAKNTVYLQMNRLKPEDTAVYYCAADYPVRSYDYWGQGTQVTVSS	low polyreactivity
QVQLVESGGGLVQAGGSLRLSCAASGRTFAINAMGWYRQAPGKERELVADITTDGSTYYADSVKGRFTISRDNAKNTVYLQMNSLKPEDTAVYYCATDSLDYFIRFKQFGYWGQGTQVTVSS	low polyreactivity
QVQLVESGGGLVQAGGSLRLSCAASGRTFAIYAMGWYRQAPGIEREFVAAISWSGGDTYYADSVKGRFTISRDNAKNTVYLQMNSLKPEDTAVYYCAARDNDYEGRDLQYELDYWGQGTHVTVSS	low polyreactivity
QVQLVESGGGLVQAGGSLRLSCAASGRTFAIYAMGWYRQAPGKEREFVAAISWSGCSTYADSVKGRFTISRDNAKNTVYLQMNSLKPEDTAVYYCAKTILYDCDYWGQGTQVTVSS	low polyreactivity
QVQLVESGGGLVQAGGSLRLSCAASGRTFAIYVMGWYRHAPGKERELVAAITRVGSTYADSVKGRFTISRDNAKNTVYLQMNSLKPEDTAVYYCAAVSGVRSGPWRYDYWGQGTQVTVSS	high polyreactivity
QVQLVESGGGLVQAGGSLRLSCAASGRTFAIYVMGWYRQAPGKEMELVAAISRGGSTYYADSVKGRFTISRDNAKNTVYLQMNSLKPEDTAVYYCAAGTGTTSRYYYWGQGTQVTVSS	high polyreactivity
QVQLVESGGGLVQAGGSLRLSCAASGRTFAKYAMGWYRQAPGKERELVAAINSSGGSTYYADSVKGRFTISRDNAKNTVYLQMNSLKPEDTAVYYCAALGIGSYRRYSGYDYWGQGTQVTVSS	low polyreactivity
QVQLVESGGGLVQAGGSLRLSCAASGRTFANYAMGWYRQAPGKERELVAAISWSGGSTYYADSVKGRFTISRDNAKNSVYLQMNSLKPEDTAVYYCAALAGRAYGYGYWGQGTQVTVSS	high polyreactivity
QVQLVESGGGLVQAGGSLRLSCAASGRTFANYAMGWYTQAPGKERELVAAITSGGRTYYAVSVKGRFTISRDNAKNTVYLQMNSLKPEDTAVYYCAATRYRVYAQNYDYWGQGTQVTVSS	high polyreactivity
QVQLVESGGGLVQAGGSLRLSCAASGRTFAQNAMGWYRQAPGKERELVAAITASGSITYYADSVKGRFTISRDNAKNTVYLQMNSLKPEDTAVSYCAARGRYHFFSKYDYWGQGTQVTVSS	high polyreactivity
QVQLVESGGGLVQAGGSLRLSCAASGRTFARYAMGWYRPAPGKERELVASITRTGGSTYYADSVKGRFTISRDNAKNTVYFQLNSLKPEDTAVYDCATQSWKVRSKMDYWGQGTQVTVSS	high polyreactivity
QVQLVESGGGLVQAGGSLRLSCAASGRTFARYARGWYRPAPGKERELVAAISSSGGSTYYADSVKGRFTISRDNAKNTVYLQMNSLKPEDTSVYYCVTYRNWWYDYWGQGTQVTVSS	high polyreactivity
QVQLVESGGGLVQAGGSLRLSCAASGRTFASNAMGWSRQAPGKERELVAAITRGGSTNYADSVKGRFTISRDNAKNTVYLQMNSLKPEDTAVYYCAARLSSGFRSYYYWGQGTQVTVSS	high polyreactivity
QVQLVESGGGLVQAGGSLRLSCAASGRTFASNDMGWYRQAPGKERELVADINNGARTYYADSVKGRFTISRDNAKNTVYLQMNSLKPEDTAVYYCNTRSGFYLGDFDYWGQGTQVTVSS	high polyreactivity
QVQLVESGGGLVQAGGSLRLSCAASGRTFASYAMGWYRQAPGKERELVAGITSGGNTYYADSVKGRFTISRDNAKNTVYLQMNSLKPEDTAVYYCAADRVYLGLFRYEYWGQGTQVTVSS	high polyreactivity
